Source: patent US20230212319A1, “NOVEL ANTIGEN BINDING DOMAINS AND SYNTHETIC ANTIGEN RECEPTORS INCORPORATING THE SAME” (University of Southern California, priority 2020, published 2023)

How the values were obtained:
RS411 cells = format: cell-based
DAUDI (CD20+) cells = format: cell-based
RAJI cells = test: JNG (Jurkat NFAT-GFP) cells expressing SAR: GFP induction on co-culture with RAJI
PC3 cells = test: JNG NFAT-GFP induction on co-culture with PC3
SKOV3 cells = format: cell-based

Row | Molecule | GFP induction (JNG-GFP induction assay), RS;411 (RS411 cells) | GFP induction (JNG-GFP induction assay), DAUDI (DAUDI (CD20+) cells) | GFP induction (JNG-GFP induction assay), RAJI WT (RAJI cells) | NFAT-GFP ASSAY: PC-3 (PC3 cells) | NFAT-GFP ASSAY: SKOV-3 (SKOV3 cells)
1 | 4088 (protein, Synthetic Polynucloetide) MALPVTALLLPLALLLHAARPDIQMTQSPSSLSASVGDRVTITCKASDHINNWLAWYQQKPGQAPKLLIYGATTLETGVPSRFSGSGSGTDYTLTISSLQPEDFATYYCQQSWNTPWTFGQGTKLEIKRLEIQNPDPAVYQLRDSKSSDKSVCLFTDFDSQTNVSQSKDSDVYITDKCVLDMRSMDFKSNSAVAWSNKSDFACANAFNNSIIPEDTFFPSSDVPCDVKLVEKSFETDTNLNFQNLSVIGFRILLLKVAGFNLLMTLRLWSSRAKRSGSGVKQTLNFDLLKLAGDVESNPGPTSMDWIWRILFLVGAATGAHSGPQVQLQESGGGLAQAGGSLRLSCAASGRTFSMGWFRQAPGKEREFVAAITYSGGSPYYASSVRGRFTISRDNAKNTVYLQMNSLKPEDTAVYYCAANPTYGSDWNAENWGQGTQVTVSSGSGGGGSGGGGSGGGGSFEQVQLQQPGAELVKPGASVKMSCKASGYAFSSYWINWMKQKPGQGLEWIGQIYPGDGDTNYNGKFKGRATLTADTSSSTAYMQLSSLTSEDSAVYFCARSITTVVGCAMDYWGQGTSVTVSSTREDLKNVFPPEVAVFEPSKAEIAHTQKATLVCLATGFYPDHVELSWWVNGKEVHSGVCTDPQPLKEQPALNDSRYCLSSRLRVSATFWQNPRNHFRCQVQFYGLSENDEWTQDRAKPVTQIVSAEAWGRADCGITSASYHQGVLSATILYEILLGKATLYAVLVSALVLMAMVKRKDSRGRAKRSGSGATNFSLLKQAGDVEENPGPSRGHMTEYKPTVRLATRDDVPRAVRTLAAAFADYPATRHTVDPDRHIERVTELQELFLTRVGLDIGKVWVADDGAAVAVWTTPESVEAGAVFAEIGPRMAELSGSRLAAQQQMEGLLAPHRPKEPAWFLATVGVSPDHQGKGLGSAVVLPGVEAAERAGVPAFLETSAPRNLPFYERLGFTVTADVEVPEGPRTWCMTRKPGA | highly positive | highly positive | positive | – | –
2 | 4089 (protein, Synthetic Polynucloetide) MALPVTALLLPLALLLHAARPDIQMTQSPSSLSASVGDRVTITCKASDHINNWLAWYQQKPGQAPKLLIYGATTLETGVPSRFSGSGSGTDYTLTISSLQPEDFATYYCQQSWNTPWTFGQGTKLEIKRLEDLKNVFPPEVAVFEPSKAEIAHTQKATLVCLATGFYPDHVELSWWVNGKEVHSGVCTDPQPLKEQPALNDSRYCLSSRLRVSATFWQNPRNHFRCQVQFYGLSENDEWTQDRAKPVTQIVSAEAWGRADCGITSASYHQGVLSATILYEILLGKATLYAVLVSALVLMAMVKRKDSRGRAKRSGSGATNFSLLKQAGDVEENPGPTSMDWIWRILFLVGAATGAHSGPQVQLQESGGGLAQAGGSLRLSCAASGRTFSMGWFRQAPGKEREFVAAITYSGGSPYYASSVRGRFTISRDNAKNTVYLQMNSLKPEDTAVYYCAANPTYGSDWNAENWGQGTQVTVSSGSGGGGSGGGGSGGGGSFEQVQLQQPGAELVKPGASVKMSCKASGYAFSSYWINWMKQKPGQGLEWIGQIYPGDGDTNYNGKFKGRATLTADTSSSTAYMQLSSLTSEDSAVYFCARSITTVVGCAMDYWGQGTSVTVSSTRIQNPDPAVYQLRDSKSSDKSVCLFTDFDSQTNVSQSKDSDVYITDKCVLDMRSMDFKSNSAVAWSNKSDFACANAFNNSIIPEDTFFPSSDVPCDVKLVEKSFETDTNLNFQNLSVIGFRILLLKVAGFNLLMTLRLWSSRAKRSGSGVKQTLNFDLLKLAGDVESNPGPSRGHMTEYKPTVRLATRDDVPRAVRTLAAAFADYPATRHTVDPDRHIERVTELQELFLTRVGLDIGKVWVADDGAAVAVWTTPESVEAGAVFAEIGPRMAELSGSRLAAQQQMEGLLAPHRPKEPAWFLATVGVSPDHQGKGLGSAVVLPGVEAAERAGVPAFLETSAPRNLPFYERLGFTVTADVEVPEGPRTWCMTRKPGA | highly positive | highly positive | positive | – | –
3 | 22691 (protein) MALPVTALLLPLALLLHAARPDIQMTQSPSSLSASVGDRVTITCRASQDISSYLNWYQQKPGKAPKLLIYYTSRLHSGVPSRFSGSGSGTDFTLTISSLQPEDFATYYCQQGNTLPYTFGQGTKVEIKRLEDLKNVFPPEVAVFEPSEAEISHTQKATLVCLATGFYPDHVELSWWVNGKEVHSGVCTDPQPLKEQPALNDSRYCLSSRLRVSATFWQNPRNHFRCQVQFYGLSENDEWTQDRAKPVTQIVSAEAWGRADCGFTSESYQQGVLSATILYEILLGKATLYAVLVSALVLMAMVKRKDSRGRAKRSGSGATNFSLLKQAGDVEENPGPTSMDWIWRILFLVGAATGAHSFEVQLVESGGGLVQPGGSLRLSCAASGFTFSDYFMSWVRQAPGKGLEWVATISNGGTYTYYPDSVKGRFTISRDNSKNTLYLQMNSLRAEDTAVYYCARFDGYIFDYWGQGTLVTVSSTRIQNPDPAVYQLRDSKSSDKSVCLFTDFDSQTNVSQSKDSDVYITDKCVLDMRSMDFKSNSAVAWSNKSDFACANAFNNSIIPEDTFFPSPESSCDVKLVEKSFETDTNLNFQNLSVIGFRILLLKVAGFNLLMTLRLWSSRAKRSGSGVKQTLNFDLLKLAGDVESNPGPSRGHMTEYKPTVRLATRDDVPRAVRTLAAAFADYPATRHTVDPDRHIERVTELQELFLTRVGLDIGKVWVADDGAAVAVWTTPESVEAGAVFAEIGPRMAELSGSRLAAQQQMEGLLAPHRPKEPAWFLATVGVSPDHQGKGLGSAVVLPGVEAAERAGVPAFLETSAPRNLPFYERLGFTVTADVEVPEGPRTWCMTRKPGA | – | – | – | significant GFP induction | –
4 | 22692 (protein) MALPVTALLLPLALLLHAARPDIQMTQSPSSLSASVGDRVTITCRASQDISNYLNWYQQKPGKAPKLLIYYTSRLHSGVPSRFSGSGSGTDFTLTISSLQPEDFATYYCQQGNTLPWTFGQGTKVEIKRLEDLKNVFPPEVAVFEPSEAEISHTQKATLVCLATGFYPDHVELSWWVNGKEVHSGVCTDPQPLKEQPALNDSRYCLSSRLRVSATFWQNPRNHFRCQVQFYGLSENDEWTQDRAKPVTQIVSAEAWGRADCGFTSESYQQGVLSATILYEILLGKATLYAVLVSALVLMAMVKRKDSRGRAKRSGSGATNFSLLKQAGDVEENPGPTSMDWIWRILFLVGAATGAHSFEVQLVESGGGLVQPGGSLRLSCAASGFTFSDYFMSWVRQAPGKGLEWVATISNGGTYTYYPDSVKGRFTISRDNSKNTLYLQMNSLRAEDTAVYYCARFDGYIFDYWGQGTLVTVSSTRIQNPDPAVYQLRDSKSSDKSVCLFTDFDSQTNVSQSKDSDVYITDKCVLDMRSMDFKSNSAVAWSNKSDFACANAFNNSIIPEDTFFPSPESSCDVKLVEKSFETDTNLNFQNLSVIGFRILLLKVAGFNLLMTLRLWSSRAKRSGSGVKQTLNFDLLKLAGDVESNPGPSRGHMTEYKPTVRLATRDDVPRAVRTLAAAFADYPATRHTVDPDRHIERVTELQELFLTRVGLDIGKVWVADDGAAVAVWTTPESVEAGAVFAEIGPRMAELSGSRLAAQQQMEGLLAPHRPKEPAWFLATVGVSPDHQGKGLGSAVVLPGVEAAERAGVPAFLETSAPRNLPFYERLGFTVTADVEVPEGPRTWCMTRKPGA | – | – | – | none to negligible GFP induction | weaker but sufficient GFP induction
5 | 22687 (protein) MALPVTALLLPLALLLHAARPDIQMTQSPSSLSASVGDRVTITCRASQDISNYLNWYQQKPGKAPKLLIYYTSRLHSGVPSRFSGSGSGTDFTLTISSLQPEDFATYYCQQGNTLPWTFGQGTKVEIKRLEDLKNVFPPEVAVFEPSEAEISHTQKATLVCLATGFYPDHVELSWWVNGKEVHSGVCTDPQPLKEQPALNDSRYCLSSRLRVSATFWQNPRNHFRCQVQFYGLSENDEWTQDRAKPVTQIVSAEAWGRADCGFTSESYQQGVLSATILYEILLGKATLYAVLVSALVLMAMVKRKDSRGRAKRSGSGATNFSLLKQAGDVEENPGPTSMDWIWRILFLVGAATGAHSFEVQLVESGGGLVQPGGSLRLSCAASGYTFSDYFMSWVRQAPGKGLEWVATISNGGTYTYYPDSVKGRFTISRDNSKNTLYLQMNSLRAEDTAVYYCARFDGYIFDYWGQGTLVTVSSTRIQNPDPAVYQLRDSKSSDKSVCLFTDFDSQTNVSQSKDSDVYITDKCVLDMRSMDFKSNSAVAWSNKSDFACANAFNNSIIPEDTFFPSPESSCDVKLVEKSFETDTNLNFQNLSVIGFRILLLKVAGFNLLMTLRLWSSRAKRSGSGVKQTLNFDLLKLAGDVESNPGPSRGHMTEYKPTVRLATRDDVPRAVRTLAAAFADYPATRHTVDPDRHIERVTELQELFLTRVGLDIGKVWVADDGAAVAVWTTPESVEAGAVFAEIGPRMAELSGSRLAAQQQMEGLLAPHRPKEPAWFLATVGVSPDHQGKGLGSAVVLPGVEAAERAGVPAFLETSAPRNLPFYERLGFTVTADVEVPEGPRTWCMTRKPGA | – | – | – | none to negligible GFP induction | weaker but sufficient GFP induction
6 | 22694 (protein) MALPVTALLLPLALLLHAARPDIQMTQSPSSLSASVGDRVTITCRASQDISNYLNWYQQKPGKAPKLLIYYTSRLHSGVPSRFSGSGSGTDFTLTISSLQPEDFATYYCQQGNTLPWTFGQGTKVEIKRLEDLKNVFPPEVAVFEPSEAEISHTQKATLVCLATGFYPDHVELSWWVNGKEVHSGVCTDPQPLKEQPALNDSRYCLSSRLRVSATFWQNPRNHFRCQVQFYGLSENDEWTQDRAKPVTQIVSAEAWGRADCGFTSESYQQGVLSATILYEILLGKATLYAVLVSALVLMAMVKRKDSRGRAKRSGSGATNFSLLKQAGDVEENPGPTSMDWIWRILFLVGAATGAHSFEVQLVESGGGLVQPGGSLRLSCAASGFTFSDYFMSWVRQAPGKGLEWVATISNGGTYTYYPDSVKGRFTISRDNSKNTLYLQMNSLRAEDTAVYYCARFDGYIFDYWGQGTLVTVSSTRIQNPDPAVYQLRDSKSSDKSVCLFTDFDSQTNVSQSKDSDVYITDKCVLDMRSMDFKSNSAVAWSNKSDFACANAFNNSIIPEDTFFPSPESSCDVKLVEKSFETDTNLNFQNLSVIGFRILLLKVAGFNLLMTLRLWSSRAKRSGSGVKQTLNFDLLKLAGDVESNPGPSRGHMTEYKPTVRLATRDDVPRAVRTLAAAFADYPATRHTVDPDRHIERVTELQELFLTRVGLDIGKVWVADDGAAVAVWTTPESVEAGAVFAEIGPRMAELSGSRLAAQQQMEGLLAPHRPKEPAWFLATVGVSPDHQGKGLGSAVVLPGVEAAERAGVPAFLETSAPRNLPFYERLGFTVTADVEVPEGPRTWCMTRKPGA | – | – | – | – | lowest GFP induction
